B1: TRAF3IP2 (parent)
chain: KQGSMNFRFIPVLFPNAKKEHVPT

Variants of: B1
Test: protein stability index of a GFP-peptide fusion (GPS, HEK-293T) (PSI 1-6); higher = more stable
Details: c terminus: a fixed tail appended
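Further: lentivirally expressed fusions sorted by FACS into six bins by GFP to DsRed ratio, PSI derived from sequencing read proportions per bin multiplied by bin number.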

Going from KQGSMNFRFIPSLFPNAKKEHVPT to KQGSMNFRFIPMLFPNAKKEHVPT, the protein stability index falls from 2.35 to 1.86.

Compared with KQGSMNFRFIPYLFPNAKKEHVPT, KQGSMNFRFIPHLFPNAKKEHVPT is higher in protein stability index: 1.97 for the first, 2.39 for the second.

Compared with KQGSMNFRFIPCLFPNAKKEHVPT, KQGSMNFRFIPTLFPNAKKEHVPT is lower in protein stability index: 2.35 for the first, 1.86 for the second.

Going from KQGSMNFRFIPFLFPNAKKEHVPT to KQGSMNFRFIPQLFPNAKKEHVPT, the protein stability index rises from 2.14 to 2.4.

Compared with KQGSMNFRFIPPLFPNAKKEHVPT, KQGSMNFRFIPWLFPNAKKEHVPT is lower in protein stability index: 2.33 for the first, 2.06 for the second.

Compared with KQGSMNFRFIPNLFPNAKKEHVPT, AQGSMNFRFIPVLFPNAKKEHVPT is lower in protein stability index: 2.84 for the first, 2.02 for the second.

First: PQGSMNFRFIPVLFPNAKKEHVPT
Second: TQGSMNFRFIPVLFPNAKKEHVPT
The protein stability index of the first is lower: 1.88 for the first, 2.32 for the second.

Compared with LQGSMNFRFIPVLFPNAKKEHVPT, DQGSMNFRFIPVLFPNAKKEHVPT is higher in protein stability index: 1.51 for the first, 2.02 for the second.

Going from QQGSMNFRFIPVLFPNAKKEHVPT to HQGSMNFRFIPVLFPNAKKEHVPT, the protein stability index rises from 1.88 to 2.17.

Going from KQGSMNFRFIPVLFPNAKKMHVPT to KQGSMNFRFIPVLFPNAKKAHVPT, the protein stability index falls from 2.3 to 2.11.

Going from KQGSMNFRFIPVLFPNAKKLHVPT to KQGSMNFRFIPVLFPNAKKDHVPT, the protein stability index rises from 1.67 to 2.33.

Compared with KQGSMNFRFIPVLFPNAKKHHVPT, KQGSMNFRFIPVLFPNAKKIHVPT is higher in protein stability index: 2.03 for the first, 2.19 for the second.

Compared with KQGSMNFRFIPVLFPNAKKVHVPT, KQGSMNFRFIPVLFPNAKKPHVPT is lower in protein stability index: 2.26 for the first, 2.12 for the second.

Going from KQGSMNFRFIPVLFPNAKKKHVPT to KQGSMNFRFIPVLFPNAKKSHVPT, the protein stability index rises from 1.68 to 1.73.

Compared with KQGSMNFRFIPVLFPWAKKEHVPT, KQGSMNFRFIPVLFPFAKKEHVPT is lower in protein stability index: 2 for the first, 1.63 for the second.

Compared with KQGSMNFRFIPVLFPYAKKEHVPT, KQGSMNFRFIPVLFPCAKKEHVPT is higher in protein stability index: 1.8 for the first, 1.89 for the second.

Going from KQGSMNFRFIPVLFPMAKKEHVPT to KQGSMNFRFIPVLFPQAKKEHVPT, the protein stability index falls from 1.88 to 1.75.

First: KQGSMNFRFIPVLFPVAKKEHVPT
Second: KQGSMNFRFIPVLFPNAKKEHVPP
The protein stability index of the first is lower: 1.55 for the first, 2.14 for the second.

Going from KQGSMNFRFIPVLFPNAKKEHVPV to KQGSMNFRFIPVLFPNAKKEHVPM, the protein stability index rises from 1.76 to 1.87.

Compared with KQGSMNFRFIPVLFPNAKKEHVPS, KQGSMNFRFIPVLFPNAKKEHVPK is higher in protein stability index: 1.65 for the first, 2.19 for the second.

First: KQGSMNFRFIPVLFPNAKKEHVPY
Second: KQGSMNFRFIPVLFPNAKKEHVPN
The protein stability index of the first is higher: 2.5 for the first, 1.97 for the second.

First: KQGSMNFRFIPVLFPNAKKEHVPD
Second: KQGSMNFRFIPVLFPNAKKEHVPE
The protein stability index of the first is lower: 2.16 for the first, 2.35 for the second.

Compared with KQGSMNFRFIPVLFPNAKKEHVPC, KQGSMNFRFIQVLFPNAKKEHVPT is lower in protein stability index: 1.94 for the first, 1.85 for the second.

Compared with KQGSMNFRFIKVLFPNAKKEHVPT, KQGSMNFRFIEVLFPNAKKEHVPT is lower in protein stability index: 2.02 for the first, 1.45 for the second.

Compared with KQGSMNFRFINVLFPNAKKEHVPT, KQGSMNFRFISVLFPNAKKEHVPT is lower in protein stability index: 1.7 for the first, 1.36 for the second.

Going from KQGSMNFRFIDVLFPNAKKEHVPT to KQGSMNFRFIWVLFPNAKKEHVPT, the protein stability index falls from 2.37 to 2.25.

Compared with KQGSMNFRFIPVNFPNAKKEHVPT, KQGSMNFRFIPVQFPNAKKEHVPT is lower in protein stability index: 2.28 for the first, 2.02 for the second.

Going from KQGSMNFRFIPVCFPNAKKEHVPT to KQGSMNFRFIPVDFPNAKKEHVPT, the protein stability index rises from 2.07 to 2.62.

First: KQGSMNFRFIPVMFPNAKKEHVPT
Second: KQGSMNFRFIPVAFPNAKKEHVPT
The protein stability index of the first is higher: 1.77 for the first, 1.66 for the second.

First: KQGSMNFRFIPVKFPNAKKEHVPT
Second: KQGSMNFRFIPVLFPNAKWEHVPT
The protein stability index of the first is higher: 2.06 for the first, 1.65 for the second.

Compared with KQGSMNFRFIPVLFPNAKQEHVPT, KQGSMNFRFIPVLFPNAKAEHVPT is lower in protein stability index: 1.84 for the first, 1.66 for the second.

Compared with KQGSMNFRFIPVLFPNAKPEHVPT, KQGSMNFRFQPVLFPNAKKEHVPT is higher in protein stability index: 1.6 for the first, 1.98 for the second.

Compared with KQGSMNFRFTPVLFPNAKKEHVPT, KQGSMNFRFYPVLFPNAKKEHVPT is higher in protein stability index: 2.07 for the first, 2.29 for the second.

Compared with KQGSMNFRFMPVLFPNAKKEHVPT, KQGSMNFRFEPVLFPNAKKEHVPT is higher in protein stability index: 2.23 for the first, 3.16 for the second.

Compared with KQGSMNFRFAPVLFPNAKKEHVPT, KQGSMNFRFNPVLFPNAKKEHVPT is higher in protein stability index: 1.98 for the first, 2.9 for the second.

First: KQGSMNFRFLPVLFPNAKKEHVPT
Second: KQGSMNFRFIPVLIPNAKKEHVPT
The protein stability index of the first is higher: 2.23 for the first, 1.36 for the second.

First: KQGSMNFRFIPVLAPNAKKEHVPT
Second: KQGSMNFRFIPVLQPNAKKEHVPT
The protein stability index of the first is lower: 1.88 for the first, 2.71 for the second.

Compared with KQGSMNFRFIPVLWPNAKKEHVPT, KQGSMNFRFIPVLVPNAKKEHVPT is lower in protein stability index: 2.46 for the first, 2.3 for the second.

First: KQGSMNFRFIPVLYPNAKKEHVPT
Second: KQGSMNFRFIPVLFPNAAKEHVPT
The protein stability index of the first is higher: 1.95 for the first, 1.76 for the second.

Compared with KQGSMNFRFIPVLFPNAHKEHVPT, KQGSMNFRFIPVLFPNANKEHVPT is higher in protein stability index: 1.89 for the first, 1.93 for the second.

Compared with KQGSMNFRFIPVLFPNADKEHVPT, KQGSMNFRFIPVLFPNAYKEHVPT is lower in protein stability index: 2.34 for the first, 1.84 for the second.

Going from KQGSLNFRFIPVLFPNAKKEHVPT to KQGSYNFRFIPVLFPNAKKEHVPT, the protein stability index falls from 1.97 to 1.87.

Compared with KQGSPNFRFIPVLFPNAKKEHVPT, KQGSWNFRFIPVLFPNAKKEHVPT is lower in protein stability index: 2.1 for the first, 1.8 for the second.

Going from KQGSGNFRFIPVLFPNAKKEHVPT to KQGSQNFRFIPVLFPNAKKEHVPT, the protein stability index rises from 2.43 to 2.65.

Compared with KQGSHNFRFIPVLFPNAKKEHVPT, KQGSVNFRFIPVLFPNAKKEHVPT is lower in protein stability index: 2.15 for the first, 1.91 for the second.

Compared with KQGSNNFRFIPVLFPNAKKEHVPT, KQGSMNFRFIPVLFPNAKKEHVKT is lower in protein stability index: 2.44 for the first, 2 for the second.

Compared with KQGSMNFRFIPVLFPNAKKEHVAT, KQGSMNFRFIPVLFPNAKKERVPT is lower in protein stability index: 1.82 for the first, 1.72 for the second.

From the supplement of paper PMC10567573
